These results are taken from article PMC11408855, “The structure of the SufS–SufE complex reveals interactions driving protected persulfide transfer in iron-sulfur cluster biogenesis” (The Journal of Biological Chemistry, 2024).

To fix the notation:
B1: C51A/E107C EcSufE (unlabeled, crystallised) (natural protein, Escherichia coli)
chain: MALLPDKEKLLRNFLRCANWEEKYLYIIELGQRLPELRDEDRSPQNSIQGAQSQVWIVMRQNAQGIIELQGDSDAAIVKGLIAVVFILYDQMTPQDIVNFDVRPWFCKMALTQHLTPSRSQGLEAMIRAIRAKAAALS
notes: EcSufE of Escherichia coli, UniProt P76194, with C51A and E107C; also called SufE C51A/E107C; SufE (C51A, E107C)
B2: EcSufS, untagged (wild type) (enzyme, Escherichia coli)
chain: MIFSVDKVRADFPVLSREVNGLPLAYLDSAASAQKPSQVIDAEAEFYRHGYAAVHRGIHTLSAQATEKMENVRKRASLFINARSAEELVFVRGTTEGINLVANSWGNSNVRAGDNIIISQMEHHANIVPWQMLCARVGAELRVIPLNPDGTLQLETLPTLFDEKTRLLAITHVSNVLGTENPLAEMITLAHQHGAKVLVDGAQAVMHHPVDVQALDCDFYVFSGHKLYGPTGIGILYVKEALLQEMPPWEGGGSMIATVSLSEGTTWTKAPWRFEAGTPNTGGIIGLGAALEYVSALGLNNIAEYEQNLMHYALSQLESVPDLTLYGPQNRLGVIAFNLGKHHAYDVGSFLDNYGIAVRTGHHCAMPLMAYYNVPAMCRASLAMYNTHEEVDRLVTGLQRIHRLLG
modifications: PLP (pyridoxal 5'-phosphate) cofactor
notes: EcSufS, cysteine desulfurase SufS of Escherichia coli, UniProt P77444; Untagged version used for crystallography and with the EcSufE variants; In samples with cysteine the active site cysteine is thought to carry a persulfide; also called SufSA; SufSB
B3: BODIPY-FL-labeled T116A EcSufE in the C51A/E107C background (natural protein, Escherichia coli)
chain: B1 chain with T116A
modifications: BODIPY-FL maleimide label (labeling efficiency 60 to 80%)
notes: EcSufE of Escherichia coli, UniProt P76194, with C51A, E107C and T116A; also called T116A SufE; source: E. coli BL21(DE3)Δsuf, pET21, purified, labeled with BODIPY-FL maleimide
B4: BODIPY-FL-labeled R119K EcSufE in the C51A/E107C background (natural protein, Escherichia coli)
chain: B1 chain with R119K
modifications: BODIPY-FL maleimide label (labeling efficiency 60 to 80%)
notes: EcSufE of Escherichia coli, UniProt P76194, with C51A, E107C and R119K; also called R119K SufE; source: E. coli BL21(DE3)Δsuf, pET21, purified, labeled with BODIPY-FL maleimide
B5: BODIPY-FL-labeled Q121A EcSufE in the C51A/E107C background (natural protein, Escherichia coli)
chain: B1 chain with Q121A
modifications: BODIPY-FL maleimide label (labeling efficiency 60 to 80%)
notes: EcSufE of Escherichia coli, UniProt P76194, with C51A, E107C and Q121A; also called Q121A SufE; source: E. coli BL21(DE3)Δsuf, pET21, purified, labeled with BODIPY-FL maleimide
B6: BODIPY-FL-labeled Q121E EcSufE in the C51A/E107C background (natural protein, Escherichia coli)
chain: B1 chain with Q121E
modifications: BODIPY-FL maleimide label (labeling efficiency 60 to 80%)
notes: EcSufE of Escherichia coli, UniProt P76194, with C51A, E107C and Q121E; also called Q121E SufE; source: E. coli BL21(DE3)Δsuf, pET21, purified, labeled with BODIPY-FL maleimide
B7: BODIPY-FL-labeled T116S EcSufE in the C51A/E107C background (natural protein, Escherichia coli)
chain: B1 chain with T116S
modifications: BODIPY-FL maleimide label (labeling efficiency 60 to 80%)
notes: EcSufE of Escherichia coli, UniProt P76194, with C51A, E107C and T116S; also called T116S SufE; source: E. coli BL21(DE3)Δsuf, pET21, purified, labeled with BODIPY-FL maleimide
B8: BODIPY-FL-labeled R119A EcSufE in the C51A/E107C background (natural protein, Escherichia coli)
chain: B1 chain with R119A
modifications: BODIPY-FL maleimide label (labeling efficiency 60 to 80%)
notes: EcSufE of Escherichia coli, UniProt P76194, with C51A, E107C and R119A; also called R119A SufE; R119A EcSufE (in double mutant background); source: E. coli BL21(DE3)Δsuf, pET21, purified, labeled with BODIPY-FL maleimide

Positions count from the first letter of the chain named. Names may count otherwise.

One series addresses SufE (Escherichia coli) (UniProt P76194). Nature of the series: fluorescence polarization. To be noted: cited from earlier work. For orientation: Fluorescence polarisation rises when a labelled molecule tumbles more slowly, as on binding a larger partner.
For SufS (from UniProt P77444), the Kd was 5 µM.

Another series addresses B2. Nature of the series: crystal structure; 230 μM SufS, 230 μM SufE (C51A, E107C) and 2 mM Cys; sitting drop vapor diffusion, PEG2000 MME, 0.1 M KSCN, 20 °C. To be noted: both partners purified.
A word on the stoichiometry N: it is the number of molecules, sites or subunits per partner or assembly. On to B1, for which the “stoichiometry N” value came to 1.

A further series deals with the molecule itself. The series is described as above.
Details: not given
Turning to B2, the binding result is given as “binds”.

Another series concerns the target B2. Nature of the series: fluorescence polarisation; 100 nM BODIPY-FL-labeled EcSufE titrated with EcSufS; 50 mM Mops pH 8.0, 150 mM NaCl, 0.1 mg/ml bovine serum albumin, 25 °C, 30 min; absence of cysteine; apparent KD. To be noted: both partners purified.
Take B3: the Kd worked out at 2300 nM.
The same measure, in the same setting: under B4 stands 1600 nM; under B5, 5900 nM.
On the same count and under the same terms, the value for B6 was 7000 nM.
Same read-out and setting: under B7 stands 2200 nM; under B8, 300 nM.

Another series deals with B2. Nature of the series: fluorescence polarisation; 100 nM BODIPY-FL-labeled EcSufE titrated with EcSufS; 50 mM Mops pH 8.0, 150 mM NaCl, 0.1 mg/ml bovine serum albumin, 25 °C, 30 min; presence of 500 μM cysteine; apparent KD. To be noted: both partners purified.
Consider B3, for which the Kd turned out to be 800 nM.
Still for that read-out and setting: under B4 stands 900 nM; under B5, 3600 nM.
Still for that read-out and setting: the value for B6 was 500 nM; that for B7 was 3100 nM; that for B8 was 500 nM.
